Here are results for 17 molecules from patent US20170052184A1 (published 2017).

Common to all, as to assay: EIA, captured mAb + biotin peptide
In assay [1] the target is T1, HCV bt-141-161 (Peptide 2, HCVc 141-161) (Hepatitis C virus (numbering per HCV-1), biotin (carboxy-terminal per; N-terminal per)).
T1 peptide: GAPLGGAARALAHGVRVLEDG

The target of assay [2] is T2, HCV bt-134-154 (Peptide 1, HCVc 134-154) (Hepatitis C virus (numbering per HCV-1), biotin (carboxy-terminal per; N-terminal per)).
T2 peptide: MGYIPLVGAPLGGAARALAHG

Assay [3] has as its target T3, HCV bt-151-171 (Peptide 3, HCVc 151-171) (Hepatitis C virus (numbering per HCV-1), biotin (carboxy-terminal per; N-terminal per)).
T3 peptide: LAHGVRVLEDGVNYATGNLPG

B1: HCV 208A-874 (antibody, V domains shown)
VH: QVQLQQPGAELVKPGASVKLSCKASGYTLSSYWMHWVKQRPGQGLEWIGEIHPSDSYTSYNQKFKDKATLTVDKSSSTAYMQLSSLTSEDSAVYYCARGGYYRYDEFAYWGQGTLVTVSA
VL: DIVMTQSHKFMSTSIGDRVSITCKASQNVSPAVAWYQQKPGQSPKLLIYSASSRYTGVPDRFTGSGSGTAFTFTISSVQAEDLAVYFCQQHFSTPWTFGGGTMLEIKR
For the molecule B1, the figures for the “Reactivity (OD 492 nm)” value in assay [1], in assay [2] and in assay [3] were 0.73 OD units, 0.05 OD units and 0.06 OD units, respectively.

B2: HCV 208A-877 (antibody, V domains shown)
VH: QLQQSGPELVKPGASVKISCKTSGYTFTENAMHWVKQSRGKSLEWIGGVNPNNGDTVYTQKFKGKATLTVAKSSSTAYMELRTMTCEESTVYYCASREPDFFDYWGQGSSVTVSS
VL: QIVLTQSPAIMSVSPGEKVSMTCSASSSVTYMHWYQQKSGTSPKRWIYDTSELASGVPARFSGSGSGTTYSLTISSMEAEDAATYYCQQWSNKPLTFGAGTKLELKR
In the case of B2, the “Reactivity (OD 492 nm)” value came out at 1.21 OD units in assay [1], 0.06 OD units in assay [2] and 0.05 OD units in assay [3].

B3: HCV 208B-560 (antibody, V domains shown)
VH: EVQLQQSGPELEKPGASVKISCKTSGYTFTEYAMHWVKQSHGMSLEWIGGINPSNGNAIYNQIFKDKATLTVDRSSSTAYMGLRSLTFGDSGVYFCVRRQLDFFDYWGQGASLTVSS
VL: DIVVTQSPASLAVSLGQRATISCRASQSVSTSRYSYLHWYQQKPGQPPKLLIKYASNLESGVPARFSGSGSGTDFTLNIHPVGEEDTATYYCQHSWEFPFTFGSGTKLEIKR
As for B3, the “Reactivity (OD 492 nm)” value in assay [1] was 3.9 OD units; in assay [2] it was 0.11 OD units; in assay [3], 0.14 OD units.

B4: HCV 208A-830 (antibody, V domains shown)
VH: EVRLQQPGPEVEKPGASVKISCKTSGYTFTEYAIHWVKQSHGESLEWIGGINPSNGDPIYNQIFKDKATLTVDRSSNTAYMGLRSLTVGDSGVYFCVRRQLDYFDFWGQGASLTVSS
VL: DIVLTQSPASLAVSLGQRATISCRSSQSVSTSRYSYLHWYQQKPGQPPKLLIKYASNLESGVPARFSGSGSGTDFTLNIHPVGEEDPATYYCQHSWEFPFTFGSGTKLEIKR
Consider B4, for which the “Reactivity (OD 492 nm)” value in assay [1] came out at 2.88 OD units; in assay [2], 0.07 OD units; in assay [3], 0.08 OD units.

B5: HCV 208A-605 (antibody, V domains shown)
VH: EVQLQQSGPELEKPGASVKISCKTSGYTFTEYAIHWVKQSHGMSLEWIGGINPSNGNAIYNQIFKDKATLTVDRSSSTAYMGLRSLTFGDSGVYFCVRRQLDFFDYWGQGASLTVSS
VL: DIVVTQSPASLAVSLGQRATISCRASQSVSTSRYSYLHWYQQKPGQPPKLLIKYASNLESGVPARFSGSGSGTDFTLNIHPVGEEDTATYYCQHSWEFPFTFGSGTKLEIKR
On to B5, for which the results for the “Reactivity (OD 492 nm)” value in assay [1], in assay [2] and in assay [3] were 3.71 OD units, 0.22 OD units and 0.16 OD units, respectively.

B6: HCV 208A-222 (antibody, V domains shown)
VH: EVQLQQSGPELEKPGASVRISCKTSGYTFTEYAMHWVKQSHGKSLEWIGGINPNNGNAIYNQIFKDKATLTVDRSSSTAYMGLRSLTFGDSGVYFCVRRQLDYFDYWGQGASLTVSS
VL: DIVVTQSPASLAVSLGQRATISCRASQSVSTSRYSYLHWYQQKPGQPPKLLIKYASNLESGVPARFSGSGSGTDFTLNIHPVGEEDTATYYCQHSWEFPFTFGSGTKLEIKR
As to B6, the entries for the “Reactivity (OD 492 nm)” value in assay [1], in assay [2] and in assay [3] were 2.7 OD units, 0.06 OD units and 0.08 OD units, respectively.

B7: HCV 208A-638 (antibody, V domains shown)
VH: QGQLQQPGAEFVKPGASLKLSCRASGYTFTSYWIHWVKQRPGQGLEWIGEVDPSDSYINQNEKFRGKATLTVDKSSSTAYMQLGSLTSEDSAVYYCARHYYGVLDSWGQGTALTVSS
VL: QIVLTQSPTIMSASLGERVTMTCTASSSVSSSYLHWFQQKPGSSPKLWIYSTSNLASGVPPRFSGSGSGTSYSLSISSVEAEDVATYYCLQFHRSPWTFGGGAKLEIKR
Turning to B7, the “Reactivity (OD 492 nm)” value in assay [1] stood at 2.96 OD units; in assay [2], 0.07 OD units; in assay [3], 0.09 OD units.

B8: HCV 208A-352 (antibody, V domains shown)
VH: QGQMQQSGAELVKPGASVKLSCKTSGFTFSSSFISWLKQKPGQSLEWIAWIYAGTGNTNYNQKFTDKAQLTVDTSSSTAYMQFSSLTTEDSAIYYCAISGTGFTYWGQGTLVTVSA
VL: DVLMAQTPLSLPVTLGDQASISCRSSQSLVHSNGNTYLEWFLQKPGQSPKLLIYNVSNRFSGVPDRFSGSGSGTDFTLKISRVEAEDLGVYYCFQGSHVPLTFGSGTKLEIKR
Consider B8, for which the “Reactivity (OD 492 nm)” value turned out to be 0.07 OD units in assay [1], 1.08 OD units in assay [2] and 0.06 OD units in assay [3].

B9: HCV 208A-557 (antibody, V domains shown)
VH: QGQMQQSGAELVKPGASVKLSCKTSGFTFSSSYISWLKQKPGQSLEWIAWIYAGTGNTNYNQKFTDKAQLTVDTSSSTAYMQLSSLTTEDSAIYYCAISGTGFTYWGQGTLVTVSA
VL: DIALTQSPASLAVSLGQRATISCRASQSVSTSRYSYMHWYQQKPGQPPELLIKYASNLESGVPARFSGSGSGTDFTLNIHPVGEEDTATYYCQHSWDFPFTFGSGTKLEIKR
Consider B9, for which the “Reactivity (OD 492 nm)” value turned out to be 2.41 OD units in assay [1], 0.05 OD units in assay [2] and 0.06 OD units in assay [3].

B10: HCV 208B-1024 (antibody, V domains shown)
VH: EVQLVESGGDLVKPGGSLKLSCAASGFTFSNYGMSWVRQTPDKRLEWVATISSGGSYSYYPDSVKGRFTISRDNAKNILYLQMSSLKSEDTAMYYCASLYYGYGDYWGQGTAFTVSS
VL: DVLMTQTPLSLPVSLGDQASISCRSSQSIVHSNGNTYLEWYLQKLGQSPKLLIYRVSNRFSGVPDRFSGSGSGTDFTLKISRVEAEDLGVYYCFQGSHVPWTFGGGTKLEIKR
In the case of B10, the figures for the “Reactivity (OD 492 nm)” value in assay [1], in assay [2] and in assay [3] were 0.75 OD units, 0.08 OD units and 0.15 OD units, respectively.

B11: HCV 208A-134 (antibody, V domains shown)
VH: QGQMQQSGAELAKPGASVKLSCKTSGFTFSSSYISWLKQKPGQSLEWIAWIYAGTGNTNYNQKFTDKAQLTVDTSSSTAYMQLSSLTTEDSAIYYCAISGTGFTYWGQGTLVTVSA
VL: EVLMTQSPLSLPVSLGDQASISCRSSQSLEHTNGNTYLEWFLQRPGQPPKLLIYKVSSRFSGVPDRFSGSGSGTDFTLKISRVEAEDLGVYYCFQGSHVPFTFGSGTKLAIKR
For B11, the “Reactivity (OD 492 nm)” value in assay [1] amounted to 0.08 OD units; in assay [2] it was 2.06 OD units; in assay [3], 0.06 OD units.

B12: HCV 208B-281 (antibody, V domains shown)
VH: QGQLQQSGAELVKPGASVKLSCKTSGFTFSSSYISWLKQRPGQSLEWIAWIYAGTGGTNYNQKFTDKAQLTVDTSSSTAYMQFSSLTTEDSAIYYCAISGTGFIYWGQGTLVTVSA
VL: DVLMTQTPLSLPVSLGDQASISCRSSQSLVHNNGNTYLEWFLQKPGQSPKLLIYKVSNRFSGVPDRFSGSGSGTDFTLKISRVEAEDLGVYYCFQGSHVPFTFGSGTKLEIKR
With B12, the “Reactivity (OD 492 nm)” value in assay [1] came to 0.16 OD units; in assay [2] it was 1.48 OD units; in assay [3], 0.12 OD units.

B13: HCV 208A-983 (antibody, V domains shown)
VH: QGQMQQSGAELVKPGASVKLSCKTSGFTFSSSYFSWLKQKPGQSLEWIAWIYAGTGNTIYNQKFTDKAQLTVDTASSTAFMQLSSLTIEDSAIYYCAISGTGFTYWGQGTLVTVSA
VL: DVLMTQTPLSLPVNLGDQASISCRSSQSLLHSNGNTYLEWFLQKPGQSPKLLIYNVSNRFSGVPDRFSGSGSGTDFTLKISRVEAEDLGVYYCFQGSHVPFTFGSGTKLAIKR
For B13, the “Reactivity (OD 492 nm)” value in assay [1] came out at 0.4 OD units; in assay [2], 3.03 OD units; in assay [3], 0.05 OD units.

B14: HCV 208B-174 (antibody, V domains shown)
VH: EVKLEESGGGLVQPGGSMKLSCVASGFSFSSYWMSWVRQSPEKGLDWVAEIRLRSDNYATHYAESVKGRFTISRDDSISRLYLQMNTLRAEDTGIYYCTWMTYWGQGTLVTVSA
VL: QNVLTQSPAIMSASPGEKVTMSCSASSSVTYMFWYQLKPESSPRLLIYDTSNLASGVPVRFSGSGSGTSYSLTISRMEAEDAATYYCQEWSSYPLTFGAGTKLDLKR
Take B14: the “Reactivity (OD 492 nm)” value stood at 1.26 OD units in assay [1], 0.08 OD units in assay [2] and 0.07 OD units in assay [3].

B15: HCV 208A-422 (antibody, V domains shown)
VH: DVQLQESGPGLVNPSQSLSLTCSVTGYSITSGYYWIWIQQSPGNKLEWMGYIKYDGGNNYSPSLKNRISIARDTSKNQCFLKLNSVTIEDTATYYCTRGSDSFDYWGQGTTLTVSS
VL: DIVLTQSPASLAVSLGQRAIISCKASQSVSFAGTNLMHWYQQKPGQQPKLLIYRASNLETGVPTRFSGSGSRTDFTLNIHPVEEDDAATYYCQQSREYYTFGGGTKLEIKR
For the molecule B15, the results for the “Reactivity (OD 492 nm)” value in assay [1], in assay [2] and in assay [3] were 0.84 OD units, 0.05 OD units and 0.1 OD units, respectively.

B16: HCV 208A-442 (antibody, V domains shown)
VH: DVQLQESGPGLVNPSQSLSLTCSVTGYSITSGYYWIWIRQFPGNKLEWMGYIKYDGGNNYSPSLKNRISIARDTSKNQFFLKLNSVTIEDTATYYCTRGSDSFDYWGQGTTLTVSS
VL: DIVLTQSPASLAVSLGQRAIISCKASQSVSFAGTNLMHWYQQKPGQQPKLLIYRASNLETGVPTRFSGSGSRTDFTLNIHPVEEDDAATYYCQQSREYYTFGGGTKLEIKR
Regarding B16, the “Reactivity (OD 492 nm)” value in assay [1] is 3.04 OD units; in assay [2], 0.08 OD units; in assay [3], 0.06 OD units.

B17: HCV 208B-589 (antibody, V domains shown)
VH: QVQLQQSGAGLAKPGASVKMSCKASGYTFTANKMHWAKQRPGQGLEWIGYIDPSSGYTEYNHKIQDKATLTADTSSSTAYMQLSSLTFEDSAVYYCTNFAYWGQGTLVTVSA
VL: DIVMTQTPLTLSVTIGQPASISCKSSQSLLFTNGKTYLNWFLQRPGQSPKRLIYLLSKLDSGVPDRFSGSGSGTDFTLKISRVEAEDLGVYYCLQSTYFPLTFGAGTKLELKR
On to B17, for which the figures for the “Reactivity (OD 492 nm)” value in assay [1], in assay [2] and in assay [3] were 0.1 OD units, 0.27 OD units and 2.85 OD units, respectively.
